Assay results: patent US20130079278A1 (Novo Nordisk, published 2013)
*1 amine or outer side, *2 acyl side, *3 side chain or, on linkers, in order; H or OH if unused. Where no end group is shown, it is not given here. Side-chain parts run from the residue outwards. The star is where a group is joined. C18 diacid = O=C(O)CCCCCCCCCCCCCCCCC(=O)*; C16 diacid = O=C(O)CCCCCCCCCCCCCCC(=O)*; γGlu = O=C(O)[C@H](CCC(=O)[*:2])N[*:1]; AEEA = NCCOCCOCC(=O)O

biological target: glucagon receptor (human, UniProt P47871 26-477); assay: cell-based or functional assay
Sequence (P47871 26-477): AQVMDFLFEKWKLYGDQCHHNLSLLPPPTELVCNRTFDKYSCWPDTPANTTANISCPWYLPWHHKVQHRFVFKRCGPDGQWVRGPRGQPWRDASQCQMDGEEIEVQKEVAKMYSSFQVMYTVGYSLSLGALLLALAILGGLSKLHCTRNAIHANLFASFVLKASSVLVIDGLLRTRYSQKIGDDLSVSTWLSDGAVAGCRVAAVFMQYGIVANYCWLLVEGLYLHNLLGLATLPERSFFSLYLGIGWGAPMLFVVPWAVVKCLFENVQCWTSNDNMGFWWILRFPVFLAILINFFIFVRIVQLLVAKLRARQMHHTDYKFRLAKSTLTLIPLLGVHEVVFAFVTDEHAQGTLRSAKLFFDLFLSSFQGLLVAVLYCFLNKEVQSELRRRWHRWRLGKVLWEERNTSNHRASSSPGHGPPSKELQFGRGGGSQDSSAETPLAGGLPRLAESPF

| Binder | Assay (I) Glucagon [EC50] |
| --- | --- |
| HSQGTFTSDYSKYLDVRRAQDFVK([γGlu-γGlu-γGlu-γGlu-C18 diacid])WLLST | 134 pM |
| HSQGTFTSDYSRYLDLRRAQDFVK([γGlu-γGlu-AEEA-AEEA-γGlu-C18 diacid])WLLAT | 253 pM |
| HSQGTFTSDYSKYLDIRRAQDFVK([γGlu-γGlu-AEEA-AEEA-γGlu-C18 diacid])WLLNT | 81 pM |
| HSQGTFTSDYSRYLDVRRAQDFVK([γGlu-γGlu-AEEA-AEEA-γGlu-C16 diacid])WLLST | 26 pM |
| HSQGTFTSDYSRYLDARRAQDFVK([γGlu-γGlu-γGlu-γGlu-C18 diacid])WLLST | 62 pM |
| HSQGTFTSDYSRYLDLRRAQDFVK([γGlu-γGlu-γGlu-γGlu-C18 diacid])WLLST | 343 pM |
| HSQGTFTSDYSKYLDLRRAQDFVK([γGlu-γGlu-γGlu-γGlu-C18 diacid])WLLST | 126 pM |
| HSQGTFTSDYSRYLDARRAQDFVK([γGlu-γGlu-γGlu-C18 diacid])WLLST | 66 pM |
| HSQGTFTSDYSKYLDLRRAQDFVK([γGlu-γGlu-AEEA-AEEA-γGlu-C16 diacid])WLLST | 39 pM |
| HSQGTFTSDYSRYLDTRRAQDFVK([γGlu-γGlu-AEEA-AEEA-γGlu-C16 diacid])WLLST | 25 pM |
| HSQGTFTSDYSKYLDIRRAQDFVK([γGlu-γGlu-γGlu-γGlu-C18 diacid])WLLST | 189 pM |
| HSQGTFTSDYSKYLDTRRAQDFVK([γGlu-γGlu-AEEA-AEEA-γGlu-C16 diacid])WLLST | 17 pM |
| HSQGTFTSDYSKYLDVRRAQDFVK([γGlu-γGlu-AEEA-AEEA-γGlu-C16 diacid])WLLST | 9 pM |
| HSQGTFTSDYSRYLDLRRAQDFVK([γGlu-γGlu-AEEA-AEEA-γGlu-C18 diacid])WLLGT | 470 pM |
| HSQGTFTSDYSRYLDLRRAQDFVK([γGlu-γGlu-γGlu-C16 diacid])WLLST | 27 pM |
| HSQGTFTSDYSRYLDLRRAQDFVK([γGlu-γGlu-AEEA-AEEA-γGlu-C16 diacid])WLLAT | 64 pM |
| HSQGTFTSDYSRYLDLRRAQDFVK([γGlu-γGlu-AEEA-AEEA-γGlu-C16 diacid])WLLGT | 90 pM |
| HSHGTFTSDYSKYLETRRAQDFVK([γGlu-γGlu-AEEA-AEEA-γGlu-C18 diacid])WLLNT | 36 pM |
| HSQGTFTSDYSKYLDARRAQDFVK([γGlu-γGlu-AEEA-AEEA-γGlu-C16 diacid])WLLST | 16 pM |
| HSQGTFTSDYSRYLDARRAQDFVK([γGlu-γGlu-AEEA-AEEA-γGlu-C16 diacid])WLLST | 22 pM |
| HSQGTFTSDYSKYLDERRAQDFVK([γGlu-γGlu-AEEA-AEEA-γGlu-C16 diacid])WLLST | 17 pM |
| HSQGTFTSDYSRYLDERRAQDFVK([γGlu-γGlu-AEEA-AEEA-γGlu-C16 diacid])WLLST | 29 pM |
